{"source": "patent US20220064272A1", "about": "(TAUC3 BIOLOGICS, published 2022)", "binders": {"B1": {"name": "Tau01 HCKB HuG4K (antibody, V domains shown)", "VH": "LVQLVESGGGLVQPGGSLKLSCAASGFTFNTYAMNWVRQASGKGLEWVGRIRSKSNNYATYYAASVKGRFTISRDDSKSMAYLQMDSLKTEDTAVYYCVGGGDFWGQGTLVTVSS", "VL": "DIQMTQSPSSLSASVGDRVTITCRASQEISVYLSWFQQKPGKAIKRLIYGAFTLQSGVPSRFSGSRSGSEYTLTISSLQPEDFATYYCLQYVRYPWTFGGGTKVEIK", "notes": "human IgG4 kappa (HuG4K)"}, "B2": {"name": "MoTau01 HuG4K chimeric antibody (antibody, V domains shown)", "VH": "EVQVVESGGGLVQPKGSLKLSCAASGFTFNTYAMNWVRQAPGKGLEWVARIRSKSNNYATYYADSVKDRFTISRDDSQSMVYLQMNNLKTEDTAMYYCVGGGDFWGQGTALTVSS", "VL": "DIQMTQSPSSLSASLGERVSLTCRASQEISVYLSWFQQKPDGTIKRLIYGAFTLDSGVPKRFSGSRSGSDYSLTISSLESEDFADYYCLQYVRYPWTFGGGTKLEIK", "notes": "Mouse variable regions with human IgG4 / kappa constant regions (pHuG4, pHuK); also called chimeric Tau01"}, "B3": {"name": "MoTau01 mouse antibody (antibody, V domains shown)", "VH": "B2 VH", "VL": "B2 VL", "notes": "Mouse hybridoma antibody; also called mouse Tau01; murine Tau01"}}, "key": {"[1]": {"target": "T1, TauC3 (C-terminally truncated tau fragment ending at aspartate 421 of htau40) (human, UniProt P10636 1-738)", "T1 construct": "Generated and purified by Genscript; also called Human TauC3; recombinant TauC3 protein", "T1 sequence (P10636 other isoform, or with tags, fused parts or gaps)": "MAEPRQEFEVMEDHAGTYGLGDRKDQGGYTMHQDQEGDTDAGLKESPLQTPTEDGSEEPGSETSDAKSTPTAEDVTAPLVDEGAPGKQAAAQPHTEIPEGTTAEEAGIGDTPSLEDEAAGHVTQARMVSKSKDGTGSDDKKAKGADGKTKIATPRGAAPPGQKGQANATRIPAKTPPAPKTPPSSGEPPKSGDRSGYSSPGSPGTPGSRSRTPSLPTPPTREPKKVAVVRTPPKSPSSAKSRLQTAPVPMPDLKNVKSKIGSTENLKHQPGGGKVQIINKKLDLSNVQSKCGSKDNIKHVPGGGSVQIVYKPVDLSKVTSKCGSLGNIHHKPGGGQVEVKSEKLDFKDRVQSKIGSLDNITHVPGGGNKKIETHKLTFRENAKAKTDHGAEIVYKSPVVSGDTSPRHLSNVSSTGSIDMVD", "assay": "Biacore off-rate ranking, TauC3 amine-coupled on CM5, one antibody concentration; one-phase exponential decay fit", "procedure": "(§1) To further evaluate the binding data observed on the Octet, an off-rate ranking experiment was performed on the Biacore 200 instrument. Biacore offers greater selectivity than the Octet and facilitated the immobilization of TauC3 onto a CM5 chip via amine coupling which stabilizes the antigen. This produces higher quality data with stable baselines and good reproducible responses. Once TauC3 is immobilized, one concentration (5 nM) of antibody is added, followed by a dissociation and regeneration step (Section 8.20). The off-rates were fitted using a two-phase decay model (FIG. 25B) or a one phase decay fitting only the second off-rate (FIG. 25A). The candidates were then ranked based on the off-rates obtained using the fits and compared. The data agreed with the Octet results (albeit with a different ranking order), highlighting Tau01 HMKM, HMKO, HMKP, HMKN and HMKE as the humanized variants with the slowest off-rates. The lack of binding of FL Tau to chimeric and a humanized candidate was also confirmed by Biacore by loading the antibody onto a Protein G chip and adding 250 nM FL Tau."}, "[2]": {"target": "T1, TauC3 (C-terminally truncated tau …)", "assay": "binding ELISA on coated TauC3, OD650", "in_short": "(§2)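 Chimeric or humanized IgG4κ antibodies were expressed in ExpiCHO cells and tested by binding ELISA against coated TauC3 antigen, which Genscript made and purified. Absorbance was read at 650 nm as the measure of binding. EC50 was calculated from the antibody concentration-response.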"}, "[3]": {"target": "T1, TauC3 (C-terminally truncated tau …)", "assay": "binding ELISA on coated TauC3, OD650", "in_short": "as §2", "remark": "listed apart in the source"}, "[4]": {"target": "T1, TauC3 (C-terminally truncated tau …)", "assay": "binding ELISA on coated TauC3, OD650; right table (HM variants)", "in_short": "as §2"}, "[5]": {"target": "T1, TauC3 (C-terminally truncated tau …)", "assay": "Biacore kinetics, TauC3 amine-coupled on CM5, antibody series, 1:1 global fit", "text": "(§3) To determine the affinity of the binding interactions, a biacore kinetic assay was developed which involved immobilizing TauC3 on a CM5 chip via amine coupling and injecting a concentration series of the respective antibody over it."}, "[6]": {"target": "T1, TauC3 (C-terminally truncated tau …)", "assay": "SPR (Biacore) kinetics, TauC3 amine-coupled on CM5, antibody as analyte", "text": "as §3"}, "[7]": {"target": "T2, full length Tau (2N4R, htau40) (human, UniProt P10636 1-758)", "T2 construct": "Generated and purified by Genscript; also called FL Tau; FLT", "T2 sequence (P10636 other isoform, or with tags, fused parts or gaps limits assumed)": "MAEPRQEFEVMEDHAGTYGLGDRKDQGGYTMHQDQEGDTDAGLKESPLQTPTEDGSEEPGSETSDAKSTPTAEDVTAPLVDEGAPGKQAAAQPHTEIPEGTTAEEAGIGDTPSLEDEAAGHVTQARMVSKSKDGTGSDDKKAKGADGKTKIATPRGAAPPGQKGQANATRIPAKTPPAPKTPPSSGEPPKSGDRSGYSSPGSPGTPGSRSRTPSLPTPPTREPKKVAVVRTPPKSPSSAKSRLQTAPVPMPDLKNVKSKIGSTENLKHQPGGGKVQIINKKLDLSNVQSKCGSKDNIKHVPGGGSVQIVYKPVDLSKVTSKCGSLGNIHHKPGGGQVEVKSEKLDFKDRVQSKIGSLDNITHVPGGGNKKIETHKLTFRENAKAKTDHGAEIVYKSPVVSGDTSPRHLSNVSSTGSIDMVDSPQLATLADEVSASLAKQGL", "assay": "Biacore, antibody captured on Protein G chip, FL Tau injected [Fig. 26B]", "procedure": "as §1"}, "[8]": {"target": "T1, TauC3 (C-terminally truncated tau …)", "assay": "binding ELISA on coated TauC3, OD650; left table (HC variants)", "in_short": "as §2"}, "[9]": {"target": "T1, TauC3 (C-terminally truncated tau …)", "assay": "binding ELISA on coated TauC3, OD650", "in_short": "as §2", "remark": "listed apart in the source"}, "[10]": {"target": "T1, TauC3 (C-terminally truncated tau …)", "assay": "Biacore off-rate ranking, TauC3 amine-coupled on CM5, one antibody concentration; two-phase decay fit, slow phase", "set-up": "unit not given here", "procedure": "as §1"}, "[11]": {"target": "T1, TauC3 (C-terminally truncated tau …)", "assay": "binding ELISA on coated TauC3, OD650", "in_short": "as §2", "remark": "listed apart in the source"}, "[12]": {"target": "T1, TauC3 (C-terminally truncated tau …)", "assay": "binding ELISA on coated TauC3, OD650", "in_short": "as §2", "remark": "listed apart in the source"}, "[13]": {"target": "T1, TauC3 (C-terminally truncated tau …)", "assay": "binding ELISA on coated TauC3, OD650", "in_short": "as §2", "remark": "listed apart in the source"}, "[14]": {"target": "T1, TauC3 (C-terminally truncated tau …)", "assay": "binding ELISA on TauC3 after 21 days at 37 C in PBS or mouse, human, cynomolgus serum, with non-incubated control", "procedure": "Purified samples of the chimeric and humanized antibodies were incubated in mouse, human and cynomolgus serum for 21 days. The binding of the Tau01 HMKE, HMKM, HMKN, HMKO, HMKP candidate antibodies which had been incubated in the 3 different serums were compared with an antibody incubated in PBS and a 4° C. positive control sample by binding ELISA to TauC3 (FIG. 37). The Tau01 HMKE, HMKM, HMKN, HMKO, HMKP candidate antibodies retained their binding capability after being incubated in mouse, human and cynomolgus serum."}, "[15]": {"target": "T1, TauC3 (C-terminally truncated tau …)", "assay": "binding ELISA on coated TauC3, OD650", "in_short": "as §2", "remark": "listed apart in the source"}, "[16]": {"target": "T1, TauC3 (C-terminally truncated tau …)", "assay": "binding ELISA, TauC3 coated", "in_short": "as §2"}, "[17]": {"target": "T1, TauC3 (C-terminally truncated tau …)", "assay": "SPR (Biacore) kinetics, TauC3 amine-coupled on CM5, 1:1 global fit", "in_short": "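Association rate, dissociation rate and Kd were derived by global fitting of surface plasmon resonance (Biacore) data. The fit used a 1:1 model, with a concentration series of each purified antibody flowed over purified antigen amine-coupled to a CM5 chip.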"}, "[18]": {"target": "T1, TauC3 (C-terminally truncated tau …)", "assay": "binding ELISA on coated TauC3, OD650", "in_short": "as §2", "remark": "listed apart in the source"}, "[19]": {"target": "T2, full length Tau (2N4R, htau40)", "assay": "binding ELISA on coated FL Tau, OD650", "in_short": "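Binding ELISA on coated full-length tau antigen, which was made and purified by Genscript. Antibody binding was read as absorbance at 650 nm.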"}, "[20]": {"target": "T2, full length Tau (2N4R, htau40)", "assay": "Octet, antibody on Protein G sensor, FL Tau in solution", "procedure": "The TauC3 and FL Tau antigens were generated and purified by Genscript and supplied at a concentration of 2.54 mg/ml or 0.24 mg/ml respectively. Binding of the chimeric antibody to TauC3 and FL Tau was assayed by binding ELISA. […] No non-specific binding to either antigen could be observed with an isotype confirming the binding observed is specific. Binding of the mouse and chimeric Tau01 antibodies to purified TauC3, was measured using Bio-Layer Interferometry (OctetRed96, ForteBio Section 8.12). The mouse and chimeric antibodies were assayed against a concentration series from 20 nM-0.31 nM TauC3 (FIGS. 8A and B). Both the mouse and chimeric antibodies were capable of binding to TauC3 in a concentration-dependent manner. The binding of the mouse and chimeric antibodies was also tested against FL Tau but low signals or no binding was observed (FIGS. 8C and D) confirming the binding of the antibodies is specific to TauC3."}}, "note": "“And” between values parts separate entries of the source, which are not always exact repeats. Equal values may be shown once."}
{"binder": "B1", "values": [{"measurement": "koff", "setting": "[1]", "value": 0.0114, "unit": "s⁻¹"}, {"measurement": "EC50", "setting": "[2]", "value": 0.502, "unit": "nM"}, {"measurement": "EC50", "setting": "[3]", "value": 0.502, "unit": "nM"}, {"measurement": "EC50", "setting": "[4]", "value": 0.73, "unit": "nM"}, {"measurement": "Kd", "setting": "[5]", "value": 1.24, "unit": "nM"}, {"measurement": "koff", "setting": "[5]", "value": 0.0249, "unit": "s⁻¹"}, {"measurement": "kon", "setting": "[5]", "value": "2.02e+07", "unit": "M⁻¹ s⁻¹"}, {"measurement": "Kd", "setting": "[6]", "value": 1.2, "unit": "nM"}, {"measurement": "binding result", "setting": "[7]", "value": "no binding"}, {"measurement": "EC50", "setting": "[8]", "value": 0.73, "unit": "nM"}, {"measurement": "EC50", "setting": "[9]", "value": 0.502, "unit": "nM"}, {"measurement": "Kslow", "setting": "[10]", "value": 0.012}, {"measurement": "EC50", "setting": "[11]", "value": 0.628, "unit": "nM"}, {"measurement": "EC50", "setting": "[12]", "value": 0.84, "unit": "nM"}]}
{"binder": "B2", "values": [{"measurement": "koff", "setting": "[1]", "value": 0.000414, "unit": "s⁻¹"}, {"measurement": "EC50", "setting": "[2]", "value": 0.474, "unit": "nM"}, {"measurement": "EC50", "setting": "[3]", "value": 0.474, "unit": "nM"}, {"measurement": "EC50", "setting": "[4]", "value": "0.438 nM and 0.483 nM and 0.538 nM and 0.73 nM"}, {"measurement": "Kd", "setting": "[5]", "value": 0.0574, "unit": "nM"}, {"measurement": "EC50", "setting": "[8]", "value": "0.438 nM and 0.483 nM and 0.538 nM and 0.73 nM"}, {"measurement": "EC50", "setting": "[9]", "value": 0.474, "unit": "nM"}, {"measurement": "Kslow", "setting": "[10]", "value": 0.000414}, {"measurement": "EC50", "setting": "[13]", "value": 0.71, "unit": "nM"}, {"measurement": "EC50 (read off the curve)", "setting": "[14]", "value": "~0.5", "unit": "nM"}, {"measurement": "EC50", "setting": "[11]", "value": 0.724, "unit": "nM"}, {"measurement": "EC50", "setting": "[15]", "value": "0.298 nM and 0.313 nM"}, {"measurement": "EC50", "setting": "[16]", "value": "0.7 nM and 0.65 nM"}, {"measurement": "Kd", "setting": "[17]", "value": 0.057, "unit": "nM"}, {"measurement": "koff", "setting": "[17]", "value": 0.000741, "unit": "s⁻¹"}, {"measurement": "kon", "setting": "[17]", "value": "1.29e+07", "unit": "M⁻¹ s⁻¹"}, {"measurement": "EC50", "setting": "[18]", "value": 0.724, "unit": "nM"}, {"measurement": "binding result", "setting": "[19]", "value": "no binding (tested: about 30 nM)"}, {"measurement": "EC50", "setting": "[12]", "value": "0.58 nM and 0.54 nM and 0.63 nM"}]}
{"binder": "B3", "values": [{"measurement": "binding result", "setting": "[20]", "value": "no binding (tested: not printed on the sheet)"}]}
